From a protein production outcome set (Wang et al. 2014) come the findings set out here.

This data set is described as follows: label from the status in PepcDB records.
In the case of “MEVFLMIRRKKTTIFAEAQESSTVLELKRIVQGILKRPPEEQLLFKDDQLLDESKTLRDCGFTSQIAKAQDPATVALVFREDASEGVQIHPYSTPLLPSVMKTGTDSLSDEIKSGLDSLSDEIKSGLDSVWCIKPEAAAGMEVFLMIRRKKTTIFAEAQESSTVLELKRIVQGFLKKPPKDQLLFKDNQLLEERKTLRDCGITGRIAKPEDPAILTLEFREDAFQLLHASPFSCPLIGGVLKNGLDFKRD”, the protein production result is “failed”. The value for “MERDLAGRIVALVSPTGLRTSYSYDACGRMVDVTDPAGRVTRYSYTSDFQVATVTYPTGETARYEYDAMGRVVLSHVPGAGVSQYRYDPCGRLVFSCDLVYGQRHFSYDLAGQLVAATNPAGGVSRYGYDRCGRLVTRTDPGGGLTTYQYNECGQMIAATDPLGRVTEYTWDKSGTLAAITRPDGTVVSRRLGPKGVEEYIDDQLVSRILITPTTRTVTIDDYTDPAFPWRHLLGYDPRGLLLTHSVAPVPGDESIVDEGPLTSSEQWWYDAEGRRVRHLTLTGDSIDYAYTNTGVLGSIRHSRLGEVSLEWDAVGRLAKLGSPLDQQQWGYTDGFVTSHTSSRGSTTISRDEMGRVLRVSAPYGDFRYGYDDSGSLTSADGLDGSSRRWVYDTAGRLVTTTCQDAGTSQTCHYDYDLAGELVSTVTQLGPGDSTVETHYRYDPCGRRIEAASSAGMREEFRWDSRGWLAGVMTFRAGRSHEFATHVDAFGCLTDVSGPAGRTPIAWDLATGEPQLVQVGGIPALPLPDGSVLTPVSADSDQDEPWRRPATDPLDPYTLIQEHLTAGISMTGGHLGVAGLAWMGARVYDSTTASFLTIDPLAAPPGSLWEAASYGYAATNPLALADPLGLRPVTDAQMRQFASTIDTRNLWDRHIRNVFSWETLGGVALATAGGLLMCFGAEVPGAMLIGAGGDMVFQQVVRGHVDYGEVALSGALAPTGGSGLSEIAGLGTRTLLTRGIEAGTTQGYVMGNYHWVTSPGPHNAETYLEQVGGETLSGAAFGGITATIGGKTYDALPDSIPTGHFGPHNTILRVGKQPETFIRKYQRNGKLDFGQATSFRGATFKSKIAIKPITTYRSWSDPDYEVGGYVSRTRPAGPLQTQLDLALAPQWGNKANHISEYEIPQFAPFYEGAAGVQPVKAIEDSDTLGQLPGGGNQILITDKQVLDRWKSKK” was “failed”; that for “MTINPRDYDLDELRKMARQRGNGMGDEDVPDPTDLDMGLDDADEEVLAGSSFRSGLYRELLPFLSGDAQEKPYLEALPETYAAEFVVFEWLEFLLMHSGYKGADEALDYYRSIDWLTEDVQDDLSDYLLGIDESATNDDNELSVDDHMLSLVYIAKLTAMT” was “failed”; that for “MPELPWVEKYRPKKLSEIVNQEEAIEKVRAWIESWLHGHPPKKKALLLAGPPGSGKTTTVYALANEYNFEVIELNASDERTYEKISRYVQAAYTMDILGKRRKIIFLDEADNIEPSGAKEIAKLIDKAKNPIIMAANKYWEVPKEIREKAELVEYKRLTQRDVMNALIRILKREGITVPKEILLEIAKRSSGDLRAAINDLQTVVVGGYEDATQVLAYRDVEKTVFQALGLVFGSDNAKRAKMAMWNLDMSPDEFLLWVDENIPHLYLNPEEIAQAYDAISRADIYLGRAARTGNYSLWKYAIDMMTAGVAVAGRKRRGFVKFYPPNTLKILAESKEEREIRESIIKKIIREMHMSRLQAIETMKIIREIFENNLDLAAHFTVFLGLSEKEVEFLAGKEKAGTIWGKALALRRKLKELGIREEEKPKVEIEEEEEEEEKTEEEKEEIEEKPEEEKEEEKKEKEKPKKGKQATLFDFLKK” was “failed”. To “MQHGARHRWGLTSGYRPGSGRRPGPSAVVAVAAFALVVASQGAAVARPAQAAAADREFASSFESGEPAPDWLSTVDTAADGSKRASGVDGGYSTGIPGNVTDHVTDVRAGAENTGAGEVKENLVDGESSTKWLTFTPTGWAEFDLDAPVKLVTYALTSANDADERDPADWTLQGSTDGKDWKTLDTRTGESFAERFQTKSYDLASPAEYQHFRLDITKNHGADLLQLADVQFSTGGTSDPAPKDMLSLVDRGPSGSPTAKAGAGFTGKRALRYAGTHKADARAYSYNKVFDVNVGVGRDTELSYRIFPSMADKDRDYDATNVSVDLVFTDGTYLSDLKATDQHGFALTPQGQGAAKILYVNQWNNVVSRIGSVAAGRTVDRILVAYDSPKGPAKFRGWLDDIALKAAPPEKPKAHLSDYALTTRGTNSSSGFSRGNNFPATAVPHGFNFWTPVTNAGSLSWLYDYARSNNADNLPTIQAFSASHEPSPWMGDRQTFQVMPSAASGTPDTGRTARALAFRHENETARPYYYGVTFENGLKAEMAPTDHAAALRFTYPGDDASVLFDNVTDQAGLTLDKEHGIVTGYSDVKSGLSTGATRLFVYGVFDAPVKEGASSGVKGYLRFAPGADHTVTLRLATSLISVDQAKDNLGQEIPDGTSFTTVKNRAQQQWDKLLGKVEVEGATPDQLTTLYSSMYRLYLYPNSGFEKIGSKYRYASPFQPMPSPDTPTHTGAKIVDGKVYVNNGFWDTYRTTWPAYSFLTPGQAGEMVDGFVQQYKDGGWTSRWSSPGYADLMTGTSSDVAFADAYVKGVDFDAKAAYDAAVKNATVVPPSSGVGRKGMATSPFLGYTSTDTSEGLSWAMEGYNNDYGIARMGQALYKKTGKKRYKEEAAYFLNRAQDYVKLFDGKAGFFQGRDGKGDWRVDSATYDPRVWGYDYTETNGWGYAFTAPQDSRGLANLYGGRGALAKKLDTYFATPETASPDFVGSYGGVIHEMTEARDVRMGMYGHSNQVAHHVNYMYDAAGRPWKTQANVREVLSRLYTGSEIGQGYHGDEDNGEQSAWYLFSALGFYPLVMGSGEYAIGSPLFTKATVHLENGRDLVVKAPKNSAKNVYVQGLKVNGKKWTSTSLPHSLIAKGGVLAFDMGAKPSSWGSGGGAGPVSITKGDQVPSPRADAIKGGGALFDDTSATSATVTSVELPVAARTKAVQYTLTSSSDHTAAPAGWVLEASADGTHWTTVDRRTDESFTWDRQTRVFSIAHPGKYAHYRLVPTAEATLAEVELLS” belongs “failed”; to “MDRDELVRYLDAYLRIQDFPQDPSLNGLQVEGKRTVRKVGAAVDAGEAIFRKALEEEVDFLIVHHGLFWGKPFPIVGHHKRRLETLFQGGINLYAAHLPLDAHEEVGNNFVLARELGLVDLTPWDVGVKGRFPQPTPLLQVADRLGQLTGMQPLVHQGGLDHVETVILVSGSGTGLLPKVDADLFVTGEPKHSVFHETFERGLNVIYAGHYDTETFGVKALAAHLEARFGLPWVFLDHPTGL”, “not failed”.

For “MLIRAIPFVFVILWASGFVGARFGLQYAEPATLLSIRMAFNVLLFLVLVAVLRRRLPTGTDFWHSCVVGALIHGFYLGGTYFAIALGMPAGLSSLLVGIQPILTAALLVAFVREEFKPSQWLGLALGFVGIAMVLMGKMEWQSEQHKVLAIGLCLLALVGITLGTLYQKKHCQQVDMVGGATVQYLAALIMFLPVAMQFETMQVQWELEFILTVLWLVVVLSCVAILLLLYMVRNGASSSVASVFYLVPPTTAIQAWLAFGESFDWMGISGFVLAATAVYLVVKKPDLTIKKAIKTEYT”, the protein production result is given as “failed”. The value for “MARVLVDFQPVGRRVEVDAGQTILSAIQQLGLSLGAGGLTAPCGGRGLCGRCRVRIASGEVGEVNPAERRFLTPAQLEKGYRLACQATVIGPVKVEIPPESMLGVQKLQVEGLDIAVTPEPPVKRYNLPLSKTTIENPLPLWQQVTGELEATYGLDRPGVDFGLAREWKPMATEGECVVTVRGPEVINIYTGRLAPPPVGLAVDLGTTKVAGFLINLETGATLAADGIMNPQITYGEDVMARLGYALEGEEEYRRIQEVEIEGLNRLAATLAAKAGVATTDIEEAVIVGNTAMHHLLLHLPVEQLARAPYVPALTTPVEIKTRNLGLNLSPGAFVYLQPVIAGFVGGDHVAMILGSRIDEARKVTLGLDIGTNTEIVLSYGGKMLSCSCASGPAFEGAHIAQGMRAVTGAIAAVRLSDDGRDVFWESIGGVPPLGICGSGILDAVAELYRTGILNASGRLDLNHPRVRRPAGGGPPEFLLVPAAETGIDGDLVVTQKDINEIQLAKAAIATGTLLLLEAAGLTVKDLEEVVVAGAFGTHLKLESAITIGMFPNLPLTAFRQVGNAAGTGARLALLSLTERKRGEAIARQVGYLELMTRPSFHEVYVKSLLLP” was “failed”; that for “MRLFSIPPPTLLAGFLAVLIGYASSAAIIWQAAIVAGATTAQISGWMTALGLAMGVSTLTLTLWYRVPVLTAWSTPGAALLVTGLQGLTLNEAIGVFIVTNALIVLCGITGLFARLMRIIPHSLAAAMLAGILLRFGLQAFASLDGQFTLCGSMLLVWLATKAVAPRYAVIAAMIIGIVIVIAQGDVVTTDVVFKPVLPTYITPDFSFAHSLSVALPLFLVTMASQNAPGIAAMKAAGYSAPVSPLIVFTGLLALVFSPFGVYSVGIAAITAAICQSPEAHPDKDQRWLAAAVAGIFYLLAGLFGSAITGMMAALPVSWIQMLAGLALLSTIGGSLYQALHNERERDAAVVAFLVTASGLTLVGIGSAFWGLIAGGVCYVVLNLIADRNRY” was “failed”; that for “MPFWLEVVINVAFSYLASVGFALTINVPHRALNLSGISGTVGWMAYWFCFRLGAGRMASNLIGAFLIGILGLVFARIKKCPVTVFNIPALVPLVPGMPAYQAVRAFVVGDYIQGQELILRVAIVTGAIGLGFLLSTMCTEAFYKIRYRHFRNTGLYFKRKK” was “failed”. The value for “MKWTTANTKHVNYTAKHELYVGTHTGSFKHLVPASEKTPYGQSNLSDLCALDKDSRVTSLAFGNDDQTEILLGRAKDAVEIHSFTEKGHSRNTVSFNAAPIVGLARYNDKLIAGIGNGEIQSLELEANDESEPVVIATGDQMDHLRQCAQVKSIVATGGKERQNNLKVYDLNADGKQIFTSKNLPNDYLQLEVPVWDSDIGFVDGPSVLATCSRTGYVRIYDTRKQRRPVACFASEEHGMSFTTLVAKGNFIYTGTTMGALKAFDTRRMKTHVHTYKGFTGGISDLHLDATGRFLSSASLDRYVRIHDSETTVLLYQCYVKSKATKILIRPFENEARVTEEPEEVADLQMDRNVSENKSVNATSVDNEYEDMFDQMPTVGDSDNESEEEMSNIKLSKADLKRRSSEKSLKNKKKKVVIS” was “failed”; that for “MNFRTGQPSDAAALAAISIEVWLGTYMRKGVSAFFAEYALNEFTSTKMASLLKDPNEHVIVSENEGGIDAFIRLGQGRAAPVSGCSTLEIATLYVQPRHHRRGLGRALLEQGLAYARQASAPSVWLTTNSENAPAIAFYLEQGFEKVGTTHFNIGDQ” was “not failed”. To “MDTKKIKTSCLINNYNYAAFLSEAVASTLRQTVKFDEIIIVDDASTDNSAEVIAKFAQQADIKYILKEKNQGQLSSFNEAFLNASGDIIFFLDADDAYEPEYLETVLNFYNRRSECDFVFCAYKKFGAVEGTFQDYEIDVDLGYSVIRTLCNGEWIGSITSTLSMRRDILRKVLPIPNTEDWRVRADDCLVWGASLVGAKKFYLSQPLVRYRIHQNNQFHNSKFVNTDKDYEYKRFWKRNSLFNYILQKNNLELPFLLAFTSLNELKTIPCPNNQDFISYLKIIFLFEKNVYWKIKGIFLLFNYLGKFLLNGKLQIR” belongs “failed”.

As to “TGEPGASDLESRNNRLQLALQLNQRTQQEQLEHLERVRGQQDLILRLARHRYSAGNSLLEAAQLITQSACEIYKVDCASIWHLEDQRLEPIIAWYRDAQEHRQPEAIDASRFPDYLDALHASRAIDAHNAGHDPRTRALAQSMRPENKAMLDASIRVDGQVIGVLCLEQSGQPRAWQSDEIAFAGELADQFAQVITNHKRRAAASALHLFQRAVEQSA”, the protein production result was “failed”. The value for “MDLKESQEFSGLIAGKPRISYQNDYGGHRTNLHLLDSRLWIILSGQAAILGFCGNTVLAEDESMKSKSGDNMDESGNTGLEKIEDGSVVSNIHTSKWRVFTDSGRDYFFQGKLEPAERLFGSAIQEAKEGFGEKDPHVASACNNLAELYRVKKEFDKAEPLYLEAVSILEEFYGPDDVRVGATLHNLGQLYLVQRKLEEARACYEIRRCVFAVISYVKNYDELES” was “failed”; that for “MITQNIESLNNIAKIQHAANTDYLTDLANRRAFFRSAESRIKEYINKKVPYCLAMIDVDFFKKVNDTYGHDSGDQVLKVIALYMRKHFGAGLTARLGGEEFAVLLHGLDADYLHNKLDDFRREIAVSSIPAGDTSISITLSLGVVFDSEDELSKQMNEADNALYAAKENGRNQIVVFGAELDDLEHHHHHH” was “not failed”.
